Assay results reported in US12552866B2, “Internalizing binding molecules targeting receptors involved in cell proliferation or in cell differentiation” (LinXis B.V., priority 2019, dated 2026).
One block for each molecule: values may come before it.

What was measured:
rPDGFRB = biological target: T1, rPDGFRB (Rattus norvegicus, UniProt Q05030); assay: Binding assay on SCC VII cells transfected with rPDGFRB; details: IRDye800CW conjugate, read-out: binding affinity (KD) to rPDGFRB
T1 construct: GFP; expressed in transfected cells; host or cells: SCC VII cells
Protocol: (§1) Based on their high affinity and binding to non-overlapping hPDGRB epitopes, VHHs SPO2P, SP12P SP14P and SP26P were selected for the design of biparatopic VHH constructs and produced in a similar way as described in example 6.1. (FIG. 15A). The binding affinities of the biparatopic constructs were determined with an ELISA assay with the periplasm (FIG. 15A). Moreover, based on their high affinity and binding to non-overlapping rPDGRB epitopes, VHHs SP26P and SP28P were selected for the design of a biparatopic VHH construct and produced in a similar way as described in example 6.1. The formed biparatopic SP28P-SP26P was conjugated to IRDye800CW (SP28P-SP26P-IRDye800CW conjugation method as described in example 9.2) and subjected to a binding assay SCC VII cells transfected with hPDGFRB, rPDGFRB or hIGF2R were performed (FIG. 15B). […] In order to create a biparatopic VHH construct which is cross-reactive for hPDGFRB and rPDGFRB, VHH SPO2P binding to hPDGFRB and VHH SPO26P binding to rPDGFRB were selected and the biparatopic construct SPO2P-SP26P was produced in a similar way as described in example 6.1. (FIG. 15C). Construct SPO2P-SP26P was conjugated to IRDye800CW (SP02P-SP26P-IRDye800CW, conjugation method as described in example 9.2) and subjected to bindings assays on SCC VII cells transfected with hPDGFRB, rPDGFRB or hIGF2R were performed (FIG. 15C). […]

hPDGFRB = biological target: T2, hPDGFRB (Homo sapiens, UniProt P09619); assay: Binding assay on SCC VII cells transfected with hPDGFRB; details: relative to rPDGFRB
T2 construct: GFP; expressed in transfected cells; host or cells: SCC VII cells
Protocol: as §1

[1] = test system: primary activated rat hepatic stellate cells (HSCs); assay: Binding (staining) to primary activated rat hepatic stellate cells; format: cell-based; details: 50 nM, HSCs from BDL rat, 6 days in culture
Protocol: The cross-reactivity of F11-E8-ABD was further evaluated in binding experiments to primary activated rat hepatic stellate cells (HSCs) by conjugating the construct to Alexa Fluor 488 (FE-A-A488, conjugation method as described in example 9.2). Activated HSCs were obtained from a perfused liver of a cirrhotic bile duct ligated (BDL) rat, the HSCs were isolated using density gradient centrifugation. Cells were kept in culture for 6 days to allow complete activation and then stained with 50 nM FE-A-A488. Activation was determined by an additional staining with alpha-smooth muscle actin (a-SMA).

T2 sequence (P09619 33-1106): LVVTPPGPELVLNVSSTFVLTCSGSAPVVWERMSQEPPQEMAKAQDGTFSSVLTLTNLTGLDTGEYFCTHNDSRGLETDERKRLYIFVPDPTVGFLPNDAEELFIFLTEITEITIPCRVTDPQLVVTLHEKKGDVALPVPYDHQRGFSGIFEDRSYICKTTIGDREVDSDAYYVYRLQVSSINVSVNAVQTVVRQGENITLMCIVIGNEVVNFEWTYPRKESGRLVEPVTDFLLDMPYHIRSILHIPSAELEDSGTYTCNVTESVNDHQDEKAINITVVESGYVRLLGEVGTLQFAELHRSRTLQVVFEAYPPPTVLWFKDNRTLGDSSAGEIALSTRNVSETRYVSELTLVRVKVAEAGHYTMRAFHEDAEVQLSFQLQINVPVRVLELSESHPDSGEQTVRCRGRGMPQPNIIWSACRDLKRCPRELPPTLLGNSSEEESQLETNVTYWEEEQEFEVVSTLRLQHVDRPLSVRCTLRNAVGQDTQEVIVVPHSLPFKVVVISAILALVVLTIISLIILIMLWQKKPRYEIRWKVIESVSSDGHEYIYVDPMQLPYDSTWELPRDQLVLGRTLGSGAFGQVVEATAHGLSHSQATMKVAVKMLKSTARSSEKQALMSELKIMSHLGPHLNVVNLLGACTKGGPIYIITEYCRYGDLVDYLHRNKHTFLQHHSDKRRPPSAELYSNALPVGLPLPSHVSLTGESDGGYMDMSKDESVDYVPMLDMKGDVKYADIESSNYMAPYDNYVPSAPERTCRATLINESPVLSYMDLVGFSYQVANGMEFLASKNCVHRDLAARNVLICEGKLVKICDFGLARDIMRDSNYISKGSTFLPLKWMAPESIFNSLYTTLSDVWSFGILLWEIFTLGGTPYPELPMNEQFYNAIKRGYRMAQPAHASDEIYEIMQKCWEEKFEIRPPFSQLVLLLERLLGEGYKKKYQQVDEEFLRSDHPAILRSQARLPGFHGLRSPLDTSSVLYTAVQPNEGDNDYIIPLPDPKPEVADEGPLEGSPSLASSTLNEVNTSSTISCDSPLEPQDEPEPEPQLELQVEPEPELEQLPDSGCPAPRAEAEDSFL
T1 sequence (Q05030 32-1097): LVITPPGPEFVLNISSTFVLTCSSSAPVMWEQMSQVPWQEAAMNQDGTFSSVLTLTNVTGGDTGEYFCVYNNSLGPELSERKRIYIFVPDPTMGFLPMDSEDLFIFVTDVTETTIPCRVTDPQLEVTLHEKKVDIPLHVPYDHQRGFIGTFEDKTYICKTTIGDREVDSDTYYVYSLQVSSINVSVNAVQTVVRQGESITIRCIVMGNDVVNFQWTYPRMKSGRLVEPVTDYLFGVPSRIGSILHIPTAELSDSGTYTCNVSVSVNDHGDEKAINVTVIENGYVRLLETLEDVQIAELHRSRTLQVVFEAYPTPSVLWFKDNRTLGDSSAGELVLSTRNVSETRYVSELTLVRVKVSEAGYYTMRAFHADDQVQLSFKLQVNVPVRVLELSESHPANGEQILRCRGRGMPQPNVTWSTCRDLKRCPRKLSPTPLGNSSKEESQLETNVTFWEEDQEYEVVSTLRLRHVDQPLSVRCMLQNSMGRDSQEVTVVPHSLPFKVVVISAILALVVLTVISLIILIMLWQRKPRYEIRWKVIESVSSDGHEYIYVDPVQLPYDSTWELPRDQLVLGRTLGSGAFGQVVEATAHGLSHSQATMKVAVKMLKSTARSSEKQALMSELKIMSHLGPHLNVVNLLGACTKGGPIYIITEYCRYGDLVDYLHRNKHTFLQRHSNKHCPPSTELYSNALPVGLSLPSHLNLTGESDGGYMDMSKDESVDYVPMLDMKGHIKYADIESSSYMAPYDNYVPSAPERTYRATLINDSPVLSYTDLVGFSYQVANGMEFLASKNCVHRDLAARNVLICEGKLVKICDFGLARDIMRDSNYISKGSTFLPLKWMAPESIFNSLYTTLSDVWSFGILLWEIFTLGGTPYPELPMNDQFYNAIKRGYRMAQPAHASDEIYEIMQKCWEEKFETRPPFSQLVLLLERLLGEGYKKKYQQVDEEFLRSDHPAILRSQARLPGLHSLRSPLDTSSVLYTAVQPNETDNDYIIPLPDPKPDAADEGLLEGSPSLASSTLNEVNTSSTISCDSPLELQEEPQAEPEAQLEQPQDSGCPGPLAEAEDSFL

Kd (rPDGFRB): < 1 nM | binding affinity to hPDGFRB (hPDGFRB): a few orders of magnitude lower
B1: SP28P-SP26P-IRDye800CW: biparatopic SP28P-SP26P conjugated to IRDye800CW (conjugate)
chain: EVQLVESGGGLVQAGGSLRLSCAASGSIVSFNGINWYRQAPGKQREWVGGITQGGNTMYADSVRGRFTISRDNTKNTMYLQMNSLKPEDTAVYYCRRPPVASWGQGTQVTVSSGGGGSGGGGSGGGGSEVQLVESGGGLVQAGGSLRLSCAASGRSFSSSVMGWFRQTPGKEREFVAATRWTAASTHYADSVKGRFTISRDHAENAVFLQMNSLKPEDTAVYYCAAGNYLDTAQYRYNYWGQGTQVTVSS
modifications: left off: small tags and cut ends

B2: FE-A-A488: 13F11-13E8-ABD conjugated to Alexa Fluor 488 (conjugate)
chain: EVQLVESGGRLVQPGDSLRLSCAASGRTFSDNAMGWFRQAPGKERRFVAGISWAGGSTYYSDSVKGRFTISRDNAKNTVYLQMNSLKPEDTAVYYCAAGLRAWVQRMPKDYNYWGQGTQVTVSSGGGGSGGGGSGGGGSEVQLVESGGGLVQAGGSLRLSCAASRSISPMGWYRQAPGKQRELVAIMPSSGPPIYADSVQGRFTISRDNAKNTVYLQMNSLKPEDTAVYYCNVGGGYWGQGTQVTVSS
modifications: left off: large carriers; small tags and cut ends
binding to activated rat HSCs [1]: binds to rat HSCs
